How the values were obtained:
[1] = biological target: T1, cce4228 protein (succinic semialdehyde dehydrogenase, SSADH) (Crocosphaera subtropica, UniProt B1WSJ7); assay: initial velocity at […] nm; assay type: biochemical; settings: MgCl2, 50 mM CHES pH 9.0, 25°C, table marks wild-type data as from ref. 26, read-out: wild-type^e, cited from earlier work
T1 construct: gene gabD; full ORF in pET-28a, N-terminal 6xHis kept, E. coli BL21(DE3), Ni-NTA; native ca. 109 kDa
T1 sequence (B1WSJ7 1-455): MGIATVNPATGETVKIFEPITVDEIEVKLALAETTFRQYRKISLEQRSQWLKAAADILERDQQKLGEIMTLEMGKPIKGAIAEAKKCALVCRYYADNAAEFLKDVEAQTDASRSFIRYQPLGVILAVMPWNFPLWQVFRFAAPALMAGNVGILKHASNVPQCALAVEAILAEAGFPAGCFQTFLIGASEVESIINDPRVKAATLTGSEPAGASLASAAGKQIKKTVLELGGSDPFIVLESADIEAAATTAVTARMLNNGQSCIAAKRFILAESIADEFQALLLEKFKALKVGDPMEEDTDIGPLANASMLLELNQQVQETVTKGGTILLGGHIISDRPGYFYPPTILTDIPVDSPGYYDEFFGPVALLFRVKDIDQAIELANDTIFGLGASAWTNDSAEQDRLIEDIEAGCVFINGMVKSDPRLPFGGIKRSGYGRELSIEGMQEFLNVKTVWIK

[2] = biological target: succinic semialdehyde dehydrogenase cce4228 protein from Cyanothece sp. ATCC51142 (wild-type, recombinant) (Cyanothece sp. ATCC51142); assay: SEC; size exclusion chromatography of purified recombinant cce4228 with standard protein ladders; native mass compared with the subunit mass
[3] = biological target: T1, cce4228 protein (succinic semialdehyde dehydrogenase, SSADH); assay: initial velocity at […] nm, excess-substrate inhibition fit; assay type: biochemical; settings: 0.5 mM NADP+, MgCl2, 50 mM CHES pH 9.0, 25°C; table marks wild-type data as from ref. 26; read-out: wild-type^e; cited from earlier work
[4] = substrate: O=CCCC(=O)O; assay: purified protein; assay type: biochemical, Crocosphaera subtropica; settings: MgCl2, 50 mM CHES pH 9.0, 25°C
[5] = substrate: NC(=O)c1ccc[n+]([C@@H]2O[C@H](COP(=O)(O)OP(=O)(O)OC[C@H]3O[C@@H](n4cnc5c(N)ncnc54)[C@H](O)[C@@H]3O)[C@@H](O)[C@H]2O)c1; assay: purified protein; assay type: biochemical, Crocosphaera subtropica; settings: 0.02 mM SSA, MgCl2, 50 mM CHES pH 9.0, 25°C, varied: cofactor
[6] = substrate: NC(=O)c1ccc[n+]([C@@H]2O[C@H](COP(=O)(O)OP(=O)(O)OC[C@H]3O[C@@H](n4cnc5c(N)ncnc54)[C@H](OP(=O)(O)O)[C@@H]3O)[C@@H](O)[C@H]2O)c1; assay: purified protein; assay type: biochemical, Crocosphaera subtropica; settings: 0.02 mM SSA, MgCl2, 50 mM CHES pH 9.0, 25°C, varied: cofactor

Question: For NC(=O)c1ccc[n+]([C@@H]2O[C@H](COP(=O)(O)OP(=O)(O)OC[C@H]3O[C@@H](n4cnc5c(N)ncnc54)[C@H](O)[C@@H]3O)[C@@H](O)[C@H]2O)c1 [NAD^+], which Km ([1]; 0.02 mM SSA) is on record?
Answer: 1700 ± 200 µM

Question: Which stoichiometry N [2] does the source give for “succinic semialdehyde dehydrogenase cce4228 protein from Cyanothece sp. ATCC51142 (wild-type, recombinant) (enzyme)” here?
Answer: 2

Question: Which Km [3] does the source give for O=CCCC(=O)O [succinic semialdehyde] here?
Answer: 8 ± 3 µM

Question: Which Km ([1]; 0.2 mM SSA) does the source give for NC(=O)c1ccc[n+]([C@@H]2O[C@H](COP(=O)(O)OP(=O)(O)OC[C@H]3O[C@@H](n4cnc5c(N)ncnc54)[C@H](OP(=O)(O)O)[C@@H]3O)[C@@H](O)[C@H]2O)c1 [NADP^+] here?
Answer: 34 ± 2 µM

B1: cce4228 protein (succinic semialdehyde dehydrogenase, SSADH) (Crocosphaera subtropica ATCC 51142; S420A) (protein)
chain: MGIATVNPATGETVKIFEPITVDEIEVKLALAETTFRQYRKISLEQRSQWLKAAADILERDQQKLGEIMTLEMGKPIKGAIAEAKKCALVCRYYADNAAEFLKDVEAQTDASRSFIRYQPLGVILAVMPWNFPLWQVFRFAAPALMAGNVGILKHASNVPQCALAVEAILAEAGFPAGCFQTFLIGASEVESIINDPRVKAATLTGSEPAGASLASAAGKQIKKTVLELGGSDPFIVLESADIEAAATTAVTARMLNNGQSCIAAKRFILAESIADEFQALLLEKFKALKVGDPMEEDTDIGPLANASMLLELNQQVQETVTKGGTILLGGHIISDRPGYFYPPTILTDIPVDSPGYYDEFFGPVALLFRVKDIDQAIELANDTIFGLGASAWTNDSAEQDRLIEDIEAGCVFINGMVKADPRLPFGGIKRSGYGRELSIEGMQEFLNVKTVWIK
notes: full ORF in pET-28a, N-terminal 6xHis kept, E. coli BL21(DE3), Ni-NTA; native ca. 109 kDa
Question: For B1, which Km ([4]; NADP+ as cofactor) is on record?
Answer: 70 ± 10 µM

Question: What about the kcat ([4]; NADP+ as cofactor) of the same molecule?
Answer: 9.3 ± 0.9 s⁻¹

B2: cce4228 protein (succinic semialdehyde dehydrogenase, SSADH) (Crocosphaera subtropica ATCC 51142; R139A) (protein)
chain: MGIATVNPATGETVKIFEPITVDEIEVKLALAETTFRQYRKISLEQRSQWLKAAADILERDQQKLGEIMTLEMGKPIKGAIAEAKKCALVCRYYADNAAEFLKDVEAQTDASRSFIRYQPLGVILAVMPWNFPLWQVFAFAAPALMAGNVGILKHASNVPQCALAVEAILAEAGFPAGCFQTFLIGASEVESIINDPRVKAATLTGSEPAGASLASAAGKQIKKTVLELGGSDPFIVLESADIEAAATTAVTARMLNNGQSCIAAKRFILAESIADEFQALLLEKFKALKVGDPMEEDTDIGPLANASMLLELNQQVQETVTKGGTILLGGHIISDRPGYFYPPTILTDIPVDSPGYYDEFFGPVALLFRVKDIDQAIELANDTIFGLGASAWTNDSAEQDRLIEDIEAGCVFINGMVKSDPRLPFGGIKRSGYGRELSIEGMQEFLNVKTVWIK
notes: as for B1
Question: For B2, which Km ([4]; NADP+ as cofactor) is on record?
Answer: 112 ± 8 µM

Question: And the kcat ([4]; NADP+ as cofactor)?
Answer: 0.54 ± 0.01 s⁻¹

B3: cce4228 protein (succinic semialdehyde dehydrogenase, SSADH) (Crocosphaera subtropica ATCC 51142; S157E) (protein)
chain: MGIATVNPATGETVKIFEPITVDEIEVKLALAETTFRQYRKISLEQRSQWLKAAADILERDQQKLGEIMTLEMGKPIKGAIAEAKKCALVCRYYADNAAEFLKDVEAQTDASRSFIRYQPLGVILAVMPWNFPLWQVFRFAAPALMAGNVGILKHAENVPQCALAVEAILAEAGFPAGCFQTFLIGASEVESIINDPRVKAATLTGSEPAGASLASAAGKQIKKTVLELGGSDPFIVLESADIEAAATTAVTARMLNNGQSCIAAKRFILAESIADEFQALLLEKFKALKVGDPMEEDTDIGPLANASMLLELNQQVQETVTKGGTILLGGHIISDRPGYFYPPTILTDIPVDSPGYYDEFFGPVALLFRVKDIDQAIELANDTIFGLGASAWTNDSAEQDRLIEDIEAGCVFINGMVKSDPRLPFGGIKRSGYGRELSIEGMQEFLNVKTVWIK
notes: as for B1
Question: With B3 as the molecule, how does the Km [5] read?
Answer: 510 ± 40 µM

Question: What about the Km [6] of the same molecule?
Answer: 1100 ± 200 µM

Question: What about the Km ([4]; 10 mM NADP+) of the same molecule?
Answer: 2.8 ± 0.7 µM

Question: What about the kcat ([4]; 10 mM NADP+) of the same molecule?
Answer: 1.5 ± 0.1 s⁻¹

Question: And the kcat/Km ([4]; 10 mM NADP+)?
Answer: 535000 M⁻¹ s⁻¹

B4: cce4228 protein (succinic semialdehyde dehydrogenase, SSADH) (Crocosphaera subtropica ATCC 51142; K154A) (protein)
chain: MGIATVNPATGETVKIFEPITVDEIEVKLALAETTFRQYRKISLEQRSQWLKAAADILERDQQKLGEIMTLEMGKPIKGAIAEAKKCALVCRYYADNAAEFLKDVEAQTDASRSFIRYQPLGVILAVMPWNFPLWQVFRFAAPALMAGNVGILAHASNVPQCALAVEAILAEAGFPAGCFQTFLIGASEVESIINDPRVKAATLTGSEPAGASLASAAGKQIKKTVLELGGSDPFIVLESADIEAAATTAVTARMLNNGQSCIAAKRFILAESIADEFQALLLEKFKALKVGDPMEEDTDIGPLANASMLLELNQQVQETVTKGGTILLGGHIISDRPGYFYPPTILTDIPVDSPGYYDEFFGPVALLFRVKDIDQAIELANDTIFGLGASAWTNDSAEQDRLIEDIEAGCVFINGMVKSDPRLPFGGIKRSGYGRELSIEGMQEFLNVKTVWIK
notes: as for B1
Question: Which Km [5] does the source give for B4 here?
Answer: 1500 ± 400 µM

Question: What about the Km [6] of the same molecule?
Answer: 6100 ± 1500 µM

Question: What about the Km ([4]; 8 mM NADP+) of the same molecule?
Answer: 20 ± 10 µM

Question: And the kcat ([4]; 8 mM NADP+)?
Answer: 0.1 ± 0.05 s⁻¹

Question: And the kcat/Km ([4]; 8 mM NADP+)?
Answer: 5000 M⁻¹ s⁻¹
